Data from patent US20250057980.

Target: T1, Bxb1 integrase (Mycobacterium phage Bxb1?) (UniProt Q9B086)
T1 sequence: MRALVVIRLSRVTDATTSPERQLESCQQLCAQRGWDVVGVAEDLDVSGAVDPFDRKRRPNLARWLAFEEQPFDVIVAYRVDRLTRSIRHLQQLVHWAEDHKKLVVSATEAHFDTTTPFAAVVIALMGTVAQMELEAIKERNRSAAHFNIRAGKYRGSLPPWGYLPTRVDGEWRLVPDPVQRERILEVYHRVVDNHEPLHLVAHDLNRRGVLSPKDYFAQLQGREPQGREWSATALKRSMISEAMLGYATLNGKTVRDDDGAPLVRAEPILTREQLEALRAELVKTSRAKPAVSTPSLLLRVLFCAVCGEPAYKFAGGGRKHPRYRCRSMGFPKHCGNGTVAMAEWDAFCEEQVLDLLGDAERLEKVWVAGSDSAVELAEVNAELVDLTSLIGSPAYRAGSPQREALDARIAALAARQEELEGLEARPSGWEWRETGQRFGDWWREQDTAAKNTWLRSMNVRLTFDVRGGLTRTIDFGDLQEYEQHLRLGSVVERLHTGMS
Assay: cell_activity
Details: in vivo mouse liver, 1E11 vg Bxb1 AdV, 1E12 vg AAV; about 7% at 3E10 vg

AttP GT/GA dual site in Rosa26 of AttP mice with 38 bp GT AttB AAV donor
activity (% integration): 11
